Measurements published in patent US20260139048A1 (NANJING LEGEND BIOTECH, published 2026).
Read-outs that look alike come from different tables or passages of the source.

T1: His-tagged human TIGIT (human, UniProt Q495A1 22-141)
T1 construct: SPR analyte; also called human TIGIT protein; not shown: His tag
T1 sequence: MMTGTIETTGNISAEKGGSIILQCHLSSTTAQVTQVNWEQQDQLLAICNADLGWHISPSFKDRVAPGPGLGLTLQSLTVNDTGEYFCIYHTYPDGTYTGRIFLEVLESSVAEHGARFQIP

T2: TIGIT on TIGIT-over expressing NFAT-Luc/Jurkat effector cells (GenScript reporter cell line) (UniProt Q495A1 22-244, limits assumed)
T2 sequence (looked up): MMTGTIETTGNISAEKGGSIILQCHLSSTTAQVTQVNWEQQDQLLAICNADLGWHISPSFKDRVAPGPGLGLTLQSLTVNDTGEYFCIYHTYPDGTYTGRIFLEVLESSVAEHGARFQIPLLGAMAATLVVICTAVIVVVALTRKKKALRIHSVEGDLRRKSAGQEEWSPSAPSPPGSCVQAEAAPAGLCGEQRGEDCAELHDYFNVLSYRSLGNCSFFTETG

T3: human TIGIT expressed on CHO-K1 cells (human, UniProt Q495A1 22-244)
T3 construct: whole, on cells; also called human TIGIT-CHO-K1 cells; human TIGIT over-expressing cell line
T3 sequence (looked up): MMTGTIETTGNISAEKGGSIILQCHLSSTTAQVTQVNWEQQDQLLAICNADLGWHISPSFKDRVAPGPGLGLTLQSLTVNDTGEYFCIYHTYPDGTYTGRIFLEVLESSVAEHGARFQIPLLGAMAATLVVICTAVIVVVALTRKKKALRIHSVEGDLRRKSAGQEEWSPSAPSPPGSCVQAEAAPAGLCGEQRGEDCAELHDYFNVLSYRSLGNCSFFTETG


How the values were obtained:
His-tagged human TIGIT [1] = target: T1, His-tagged human TIGIT; experiment: SPR experiment 3, IgG from HEK293 supernatant
His-tagged human TIGIT [2] = target: T1, His-tagged human TIGIT; experiment: SPR experiment 3, IgG from HEK293 supernatant captured
[3] = target: T2, TIGIT on TIGIT-over expressing …; experiment: cell-based or functional assay
[4] = target: T3, human TIGIT expressed on CHO-K1 cells; experiment: flow cytometry competition: biotinylated CD155-Fc on human TIGIT-CHO-K1 cells
[5] = target: T3, human TIGIT expressed on CHO-K1 cells; experiment: flow cytometry on CHO-K1 cells expressing human TIGIT
[6] = target: T4, cynomolgus TIGIT expressed on CHO-K1 cells (cynomolgus, UniProt A0A7N9I9V4 89-312); experiment: flow cytometry on CHO-K1 cells expressing cynomolgus TIGIT
T4 construct: whole, on cells; also called cynomolgus TIGIT over-expressing cell line

His-tagged human TIGIT [7] = target: T1, His-tagged human TIGIT; experiment: SPR experiment 2, IgG from HEK293 supernatant captured
[8] = target: T3, human TIGIT expressed on CHO-K1 cells; experiment: flow cytometry competition: biotinylated CD155-Fc on human TIGIT-CHO-K1 cells; remark: listed apart in the source
His-tagged human TIGIT [9] = target: T1, His-tagged human TIGIT; experiment: SPR experiment 1, IgG from HEK293 supernatant captured
[10] = target: T4, cynomolgus TIGIT expressed on CHO-K1 …; experiment: flow cytometry on CHO-K1 cells expressing cynomolgus TIGIT; remark: listed apart in the source
His-tagged human TIGIT [11] = target: T1, His-tagged human TIGIT; experiment: SPR (Biacore T200), antibody captured, His-tagged TIGIT analyte
[12] = target: T5, His-tagged cynomolgus TIGIT (cynomolgus, UniProt A0A7N9I9V4 89-209); experiment: as above
T5 construct: SPR analyte; also called cynomolgus TIGIT protein; not shown: His tag

[13] = target: T2, TIGIT on TIGIT-over expressing …; experiment: cell-based or functional assay; remark: listed apart in the source
[14] = target: T3, human TIGIT expressed on CHO-K1 cells; experiment: flow cytometry on CHO-K1 cells expressing human TIGIT; remark: listed apart in the source
His-tagged human TIGIT [15] = target: T1, His-tagged human TIGIT; experiment: SPR (Biacore T200), antibody captured, His-tagged TIGIT analyte; remark: listed apart in the source
[16] = target: T5, His-tagged cynomolgus TIGIT; experiment: as above; remark: listed apart in the source
His-tagged human TIGIT [17] = target: T1, His-tagged human TIGIT; experiment: SPR experiment 2, IgG from HEK293 supernatant captured; remark: listed apart in the source
[18] = target: T4, cynomolgus TIGIT expressed on CHO-K1 …; experiment: flow cytometry on TIGIT over-expressing CHO-K1 cells
His-tagged human TIGIT [19] = target: T1, His-tagged human TIGIT; experiment: SPR, IgG from HEK293 supernatant; against 19VH + 19VL

T4 sequence (A0A7N9I9V4 entry or part of it): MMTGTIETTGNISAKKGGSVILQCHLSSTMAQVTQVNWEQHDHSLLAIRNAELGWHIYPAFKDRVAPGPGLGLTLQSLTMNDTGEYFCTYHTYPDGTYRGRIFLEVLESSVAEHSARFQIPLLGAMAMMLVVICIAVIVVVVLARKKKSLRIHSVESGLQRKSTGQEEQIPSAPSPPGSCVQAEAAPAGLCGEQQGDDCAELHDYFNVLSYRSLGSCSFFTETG
T5 sequence (A0A7N9I9V4 entry or part of it): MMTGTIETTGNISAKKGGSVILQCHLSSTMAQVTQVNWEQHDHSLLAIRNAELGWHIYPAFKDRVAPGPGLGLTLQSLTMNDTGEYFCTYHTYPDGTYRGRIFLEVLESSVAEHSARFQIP

Binder	IC50 [4]	EC50 [6]	Kd (His-tagged human TIGIT [7])	koff (His-tagged human TIGIT [7])	kon (His-tagged human TIGIT [7])	Kd (His-tagged human TIGIT [9])	koff (His-tagged human TIGIT [9])	kon (His-tagged human TIGIT [9])	Kd (His-tagged human TIGIT [11])	koff (His-tagged human TIGIT [11])	kon (His-tagged human TIGIT [11])	Kd [12]	koff [12]	kon [12]	Bottom (RLU) [13]	EC50 [13]	Top (RLU) [13]	EC50 [14]	other results
reshaped TIGIT-3 antibody 3VH3 + 3VL1 (antibody, V domains shown, Full-length IgG, tested as HEK293 supernatant) VH: EVQLVESGGGLVQPGGSLRLSCAASGFTFSSYGMSWVRQAPGKGLELVATIKSDGGSTNLPDSVKGRFTISRDNSKNTLYLQMNSLRAEDTAVYYCVRGYFDYWGQGTTVTVSS VL: DIQMTQSPSSLSASVGDRVTITCKASQDVKTAVAWYQQKPGKVPKLLIYWSSTRHTGVPSRFSGSGSGTDFTLTISSLQPEDVATYYCQQYYSTPYTFGGGTKVEIK	–	–	–	–	–	–	–	–	–	–	–	–	–	–	–	–	–	–	fold affinity decrease (His-tagged human TIGIT [1]): ~100 fold; Kd (His-tagged human TIGIT [2]): 36 nM; koff (His-tagged human TIGIT [2]): 0.0076 s⁻¹; kon (His-tagged human TIGIT [2]): 210000 M⁻¹ s⁻¹
TIGIT-19 chimeric antibody (antibody, human IgG1, kappa, V domains shown, also called 19VH + 19VL) VH: QVQLQQPGPELVKPGTSVMLSCKASGYAFSRYSMYWVKQSHGKSLEWIAFIDPYNGGSTYNQRFRGKATLTVDKSSSTAYMHLNTLTSDDSAVYYCARGGDYGWYLGVWGAGTTVTVSS VL: DIQMTQSPASLSASVGETVTITCRPSENIYTYLSWYQQKRGKSPQLLVYNAKTLPENVPSRFSGSGSGTQFSLKIDSLQPEDFGNYYCQHHYGNPLTFGAGTKLELKR	0.26 nM	0.524 nM	0.12 nM	0.00015 s⁻¹	1.2e+06 M⁻¹ s⁻¹	0.071 nM	9.7e-05 s⁻¹	1.4e+06 M⁻¹ s⁻¹	0.04 nM	5.9e-05 s⁻¹	1.5e+06 M⁻¹ s⁻¹	0.032 nM	3.2e-05 s⁻¹	1e+06 M⁻¹ s⁻¹	47600 RLU	2.75 nM	130000 RLU	0.311 nM	Bottom (RLU) [3]: 11100 RLU; EC50 [3]: 3.28 nM; Top (RLU) [3]: 41600 RLU; EC50 [5]: 0.41 nM; IC50 [8]: 0.4 nM; EC50 [10]: 1.05 nM; Kd (His-tagged human TIGIT [15]): 0.071 nM; koff (His-tagged human TIGIT [15]): 0.0001 s⁻¹; kon (His-tagged human TIGIT [15]): 1.5e+06 M⁻¹ s⁻¹; Kd [16]: 0.091 nM; koff [16]: 6.6e-05 s⁻¹; kon [16]: 730000 M⁻¹ s⁻¹
huTIGIT-6-4 (antibody, human IgG1, kappa, V domains shown, Humanized IgG; also called 6VH6.M7 + 6VL1.M1) VH: QVQLVQSGAEVKKPGASVKVSCKASGYTFTENAMHWVRQAPGQRLEWIGGINPNNAGTSYSQKFQGRATLTVDTSASTAYMELSSLRSEDTAVYYCTRSSYYRYDLDYWGQGTTVTVSS VL: DIQMTQSPSSLSASVGDRVTITCQASQDIKTALAWYQQKPGKAPKLLIYSASYRYTGVPSRFSGSGSGTDFTFTISSLQPEDIATYYCHQHYTTPWTFGGGTKLEIKR	1.17 nM	16.7 nM	–	–	–	–	–	–	0.58 nM	0.00019 s⁻¹	330000 M⁻¹ s⁻¹	260 nM	0.013 s⁻¹	47000 M⁻¹ s⁻¹	46800 RLU	14.8 nM	128000 RLU	1.02 nM	Kd (His-tagged human TIGIT [17]): 0.75 nM; koff (His-tagged human TIGIT [17]): 0.00023 s⁻¹; kon (His-tagged human TIGIT [17]): 300000 M⁻¹ s⁻¹; fold EC50 on cynomolgus against human TIGIT cell line [18]: > 10 fold
humanized TIGIT-19 antibody 19VH4 + 19VL1 (antibody, V domains shown, Full-length IgG, tested as HEK293 supernatant) VH: QVQLVQSGAEVKKPGASVKVSCKASGYAFSRYSMYWVRQAPGQGLEWIAFIDPYNGGSTYNQRFRGKATLTVDTSISTAYMELSRLRSDDTAVYYCARGGDYGWYLGVWGQGTLVTVSS VL: DIQMTQSPSSLSASVGDRVTITCRPSENIYTYLSWYQQKPGKAPKLLIYNAKTLPEGVPSRFSGSGSGTDFTLTISSLQPEDFATYYCQHHYGNPLTFGQGTKVEIK	–	–	0.028 nM	3.3e-05 s⁻¹	1.2e+06 M⁻¹ s⁻¹	0.0196 nM	2.51e-05 s⁻¹	1.28e+06 M⁻¹ s⁻¹	–	–	–	–	–	–	–	–	–	–	fold improvement of binding affinity (His-tagged human TIGIT [19]): ~4 fold
